Numbered stars: 1 amine (or outer) side, 2 acyl side, 3 side chain; on linkers, the order of the positions; unused ones are H or OH. Bridge positions count the residues as written; N and C are the ends. Side chains are listed from the residue outwards. Ends that are not written are not given here. * marks the point of attachment. C20 diacid = O=C(O)CCCCCCCCCCCCCCCCCCC(=O)*; γGlu = O=C(O)[C@H](CCC(=O)[*:2])N[*:1]
T1: human calcitonin receptor (human, UniProt P30988 25-474)
T1 sequence (looked up): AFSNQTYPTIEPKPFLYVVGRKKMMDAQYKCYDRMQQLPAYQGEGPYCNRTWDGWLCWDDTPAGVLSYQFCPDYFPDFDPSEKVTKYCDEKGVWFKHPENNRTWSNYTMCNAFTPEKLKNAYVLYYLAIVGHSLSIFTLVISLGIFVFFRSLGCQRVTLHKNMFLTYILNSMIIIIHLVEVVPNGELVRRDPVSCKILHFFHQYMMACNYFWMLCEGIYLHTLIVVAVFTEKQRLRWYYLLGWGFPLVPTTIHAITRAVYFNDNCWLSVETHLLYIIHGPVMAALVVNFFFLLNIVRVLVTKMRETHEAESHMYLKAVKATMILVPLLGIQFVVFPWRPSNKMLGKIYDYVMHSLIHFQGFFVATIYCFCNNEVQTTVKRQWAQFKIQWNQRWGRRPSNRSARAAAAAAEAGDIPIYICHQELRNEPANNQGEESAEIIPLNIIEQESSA

B1: N^ε1-[(4S)-4-carboxy-4-(19-carboxynonadecanoylamino)butanoyl]-[Asp14,Arg17,Pro21,Pro27,Pro34,Glu35]-h-amylin (peptide)
peptide: K([γGlu-C20 diacid])CNTATCATQRLADFLRHSSPNFGAIPSSTNVGPETY-NH2
modifications: disulfide 2-7; N-terminus assumed
SMILES: CC[C@H](C)[C@H](NC(=O)[C@H](C)NC(=O)CNC(=O)[C@H](Cc1ccccc1)NC(=O)[C@H](CC(N)=O)NC(=O)[C@@H]1CCCN1C(=O)[C@H](CO)NC(=O)[C@H](CO)NC(=O)[C@H](Cc1c[nH]cn1)NC(=O)[C@H](CCCNC(=N)N)NC(=O)[C@H](CC(C)C)NC(=O)[C@H](Cc1ccccc1)NC(=O)[C@H](CC(=O)O)NC(=O)[C@H](C)NC(=O)[C@H](CC(C)C)NC(=O)[C@H](CCCNC(=N)N)NC(=O)[C@H](CCC(N)=O)NC(=O)[C@@H](NC(=O)[C@H](C)NC(=O)[C@@H]1CSSC[C@H](NC(=O)[C@@H](N)CCCCNC(=O)CC[C@H](NC(=O)CCCCCCCCCCCCCCCCCCC(=O)O)C(=O)O)C(=O)N[C@@H](CC(N)=O)C(=O)N[C@@H]([C@@H](C)O)C(=O)N[C@@H](C)C(=O)N[C@@H]([C@@H](C)O)C(=O)N1)[C@@H](C)O)C(=O)N1CCC[C@H]1C(=O)N[C@@H](CO)C(=O)N[C@@H](CO)C(=O)N[C@H](C(=O)N[C@@H](CC(N)=O)C(=O)N[C@H](C(=O)NCC(=O)N1CCC[C@H]1C(=O)N[C@@H](CCC(=O)O)C(=O)N[C@H](C(=O)N[C@@H](Cc1ccc(O)cc1)C(N)=O)[C@@H](C)O)C(C)C)[C@@H](C)O
B2: N^ε1-[(4S)-4-carboxy-4-(19-carboxynonadecanoylamino)butanoyl]-[Glu14,Arg17,Pro21,Pro27,His34,Glu35]-h-amylin (peptide)
peptide: K([γGlu-C20 diacid])CNTATCATQRLAEFLRHSSPNFGAIPSSTNVGHETY-NH2
modifications: disulfide 2-7; N-terminus assumed
SMILES: CC[C@H](C)[C@H](NC(=O)[C@H](C)NC(=O)CNC(=O)[C@H](Cc1ccccc1)NC(=O)[C@H](CC(N)=O)NC(=O)[C@@H]1CCCN1C(=O)[C@H](CO)NC(=O)[C@H](CO)NC(=O)[C@H](Cc1c[nH]cn1)NC(=O)[C@H](CCCNC(=N)N)NC(=O)[C@H](CC(C)C)NC(=O)[C@H](Cc1ccccc1)NC(=O)[C@H](CCC(=O)O)NC(=O)[C@H](C)NC(=O)[C@H](CC(C)C)NC(=O)[C@H](CCCNC(=N)N)NC(=O)[C@H](CCC(N)=O)NC(=O)[C@@H](NC(=O)[C@H](C)NC(=O)[C@@H]1CSSC[C@H](NC(=O)[C@@H](N)CCCCNC(=O)CC[C@H](NC(=O)CCCCCCCCCCCCCCCCCCC(=O)O)C(=O)O)C(=O)N[C@@H](CC(N)=O)C(=O)N[C@@H]([C@@H](C)O)C(=O)N[C@@H](C)C(=O)N[C@@H]([C@@H](C)O)C(=O)N1)[C@@H](C)O)C(=O)N1CCC[C@H]1C(=O)N[C@@H](CO)C(=O)N[C@@H](CO)C(=O)N[C@H](C(=O)N[C@@H](CC(N)=O)C(=O)N[C@H](C(=O)NCC(=O)N[C@@H](Cc1c[nH]cn1)C(=O)N[C@@H](CCC(=O)O)C(=O)N[C@H](C(=O)N[C@@H](Cc1ccc(O)cc1)C(N)=O)[C@@H](C)O)C(C)C)[C@@H](C)O
notes: also called compound 107
B3: N^ε1-[(4S)-4-carboxy-4-(19-carboxynonadecanoylamino)butanoyl]-[Glu14,Arg17,Pro21,Pro27,His35]-h-amylin (peptide)
peptide: K([γGlu-C20 diacid])CNTATCATQRLAEFLRHSSPNFGAIPSSTNVGSHTY-NH2
modifications: disulfide 2-7; N-terminus assumed
SMILES: CC[C@H](C)[C@H](NC(=O)[C@H](C)NC(=O)CNC(=O)[C@H](Cc1ccccc1)NC(=O)[C@H](CC(N)=O)NC(=O)[C@@H]1CCCN1C(=O)[C@H](CO)NC(=O)[C@H](CO)NC(=O)[C@H](Cc1c[nH]cn1)NC(=O)[C@H](CCCNC(=N)N)NC(=O)[C@H](CC(C)C)NC(=O)[C@H](Cc1ccccc1)NC(=O)[C@H](CCC(=O)O)NC(=O)[C@H](C)NC(=O)[C@H](CC(C)C)NC(=O)[C@H](CCCNC(=N)N)NC(=O)[C@H](CCC(N)=O)NC(=O)[C@@H](NC(=O)[C@H](C)NC(=O)[C@@H]1CSSC[C@H](NC(=O)[C@@H](N)CCCCNC(=O)CC[C@H](NC(=O)CCCCCCCCCCCCCCCCCCC(=O)O)C(=O)O)C(=O)N[C@@H](CC(N)=O)C(=O)N[C@@H]([C@@H](C)O)C(=O)N[C@@H](C)C(=O)N[C@@H]([C@@H](C)O)C(=O)N1)[C@@H](C)O)C(=O)N1CCC[C@H]1C(=O)N[C@@H](CO)C(=O)N[C@@H](CO)C(=O)N[C@H](C(=O)N[C@@H](CC(N)=O)C(=O)N[C@H](C(=O)NCC(=O)N[C@@H](CO)C(=O)N[C@@H](Cc1c[nH]cn1)C(=O)N[C@H](C(=O)N[C@@H](Cc1ccc(O)cc1)C(N)=O)[C@@H](C)O)C(C)C)[C@@H](C)O
B4: N^ε1-[(4S)-4-carboxy-4-(19-carboxynonadecanoylamino)butanoyl]-[Glu14,Arg17,Pro21,Pro27,Pro34,His35]-h-amylin (peptide)
peptide: K([γGlu-C20 diacid])CNTATCATQRLAEFLRHSSPNFGAIPSSTNVGPHTY-NH2
modifications: disulfide 2-7
B5: N^ε1-[(4S)-4-carboxy-4-[[(4S)-4-carboxy-4-(19-carboxynonadecanoylamino)butanoyl]amino]butanoyl]-[Arg17,Pro21,Pro27,Pro31,Pro34,Arg35]-h-amylin (peptide)
peptide: K([γGlu-γGlu-C20 diacid])CNTATCATQRLANFLRHSSPNFGAIPSSTPVGPRTY-NH2
modifications: disulfide 2-7; N-terminus assumed
SMILES: CC[C@H](C)[C@H](NC(=O)[C@H](C)NC(=O)CNC(=O)[C@H](Cc1ccccc1)NC(=O)[C@H](CC(N)=O)NC(=O)[C@@H]1CCCN1C(=O)[C@H](CO)NC(=O)[C@H](CO)NC(=O)[C@H](Cc1c[nH]cn1)NC(=O)[C@H](CCCNC(=N)N)NC(=O)[C@H](CC(C)C)NC(=O)[C@H](Cc1ccccc1)NC(=O)[C@H](CC(N)=O)NC(=O)[C@H](C)NC(=O)[C@H](CC(C)C)NC(=O)[C@H](CCCNC(=N)N)NC(=O)[C@H](CCC(N)=O)NC(=O)[C@@H](NC(=O)[C@H](C)NC(=O)[C@@H]1CSSC[C@H](NC(=O)[C@@H](N)CCCCNC(=O)CC[C@H](NC(=O)CC[C@H](NC(=O)CCCCCCCCCCCCCCCCCCC(=O)O)C(=O)O)C(=O)O)C(=O)N[C@@H](CC(N)=O)C(=O)N[C@@H]([C@@H](C)O)C(=O)N[C@@H](C)C(=O)N[C@@H]([C@@H](C)O)C(=O)N1)[C@@H](C)O)C(=O)N1CCC[C@H]1C(=O)N[C@@H](CO)C(=O)N[C@@H](CO)C(=O)N[C@H](C(=O)N1CCC[C@H]1C(=O)N[C@H](C(=O)NCC(=O)N1CCC[C@H]1C(=O)N[C@@H](CCCNC(=N)N)C(=O)N[C@H](C(=O)N[C@@H](Cc1ccc(O)cc1)C(N)=O)[C@@H](C)O)C(C)C)[C@@H](C)O
B6: N^ε1-[(4S)-4-carboxy-4-[[(4S)-4-carboxy-4-(19-carboxynonadecanoylamino)butanoyl]amino]butanoyl]-[Asp14,Arg17,Pro21,Pro27,Pro34,Glu35]-h-amylin (peptide)
peptide: K([γGlu-γGlu-C20 diacid])CNTATCATQRLADFLRHSSPNFGAIPSSTNVGPETY-NH2
modifications: disulfide 2-7
B7: N^ε1-[(4S)-4-carboxy-4-[[(4S)-4-carboxy-4-(19-carboxynonadecanoylamino)butanoyl]amino]butanoyl]-[Glu14,Arg17,Pro21,Pro27,His34,Glu35]-h-amylin (peptide)
peptide: K([γGlu-γGlu-C20 diacid])CNTATCATQRLAEFLRHSSPNFGAIPSSTNVGHETY-NH2
modifications: disulfide 2-7; N-terminus assumed
SMILES: CC[C@H](C)[C@H](NC(=O)[C@H](C)NC(=O)CNC(=O)[C@H](Cc1ccccc1)NC(=O)[C@H](CC(N)=O)NC(=O)[C@@H]1CCCN1C(=O)[C@H](CO)NC(=O)[C@H](CO)NC(=O)[C@H](Cc1c[nH]cn1)NC(=O)[C@H](CCCNC(=N)N)NC(=O)[C@H](CC(C)C)NC(=O)[C@H](Cc1ccccc1)NC(=O)[C@H](CCC(=O)O)NC(=O)[C@H](C)NC(=O)[C@H](CC(C)C)NC(=O)[C@H](CCCNC(=N)N)NC(=O)[C@H](CCC(N)=O)NC(=O)[C@@H](NC(=O)[C@H](C)NC(=O)[C@@H]1CSSC[C@H](NC(=O)[C@@H](N)CCCCNC(=O)CC[C@H](NC(=O)CC[C@H](NC(=O)CCCCCCCCCCCCCCCCCCC(=O)O)C(=O)O)C(=O)O)C(=O)N[C@@H](CC(N)=O)C(=O)N[C@@H]([C@@H](C)O)C(=O)N[C@@H](C)C(=O)N[C@@H]([C@@H](C)O)C(=O)N1)[C@@H](C)O)C(=O)N1CCC[C@H]1C(=O)N[C@@H](CO)C(=O)N[C@@H](CO)C(=O)N[C@H](C(=O)N[C@@H](CC(N)=O)C(=O)N[C@H](C(=O)NCC(=O)N[C@@H](Cc1c[nH]cn1)C(=O)N[C@@H](CCC(=O)O)C(=O)N[C@H](C(=O)N[C@@H](Cc1ccc(O)cc1)C(N)=O)[C@@H](C)O)C(C)C)[C@@H](C)O
B8: N^ε1-[(4S)-4-carboxy-4-[[(4S)-4-carboxy-4-(19-carboxynonadecanoylamino)butanoyl]amino]butanoyl]-[Glu14,Arg17,Pro21,Pro27,Pro34,Glu35,Pro37]-h-amylin (peptide)
peptide: K([γGlu-γGlu-C20 diacid])CNTATCATQRLAEFLRHSSPNFGAIPSSTNVGPETP-NH2
modifications: disulfide 2-7; N-terminus assumed
SMILES: CC[C@H](C)[C@H](NC(=O)[C@H](C)NC(=O)CNC(=O)[C@H](Cc1ccccc1)NC(=O)[C@H](CC(N)=O)NC(=O)[C@@H]1CCCN1C(=O)[C@H](CO)NC(=O)[C@H](CO)NC(=O)[C@H](Cc1c[nH]cn1)NC(=O)[C@H](CCCNC(=N)N)NC(=O)[C@H](CC(C)C)NC(=O)[C@H](Cc1ccccc1)NC(=O)[C@H](CCC(=O)O)NC(=O)[C@H](C)NC(=O)[C@H](CC(C)C)NC(=O)[C@H](CCCNC(=N)N)NC(=O)[C@H](CCC(N)=O)NC(=O)[C@@H](NC(=O)[C@H](C)NC(=O)[C@@H]1CSSC[C@H](NC(=O)[C@@H](N)CCCCNC(=O)CC[C@H](NC(=O)CC[C@H](NC(=O)CCCCCCCCCCCCCCCCCCC(=O)O)C(=O)O)C(=O)O)C(=O)N[C@@H](CC(N)=O)C(=O)N[C@@H]([C@@H](C)O)C(=O)N[C@@H](C)C(=O)N[C@@H]([C@@H](C)O)C(=O)N1)[C@@H](C)O)C(=O)N1CCC[C@H]1C(=O)N[C@@H](CO)C(=O)N[C@@H](CO)C(=O)N[C@H](C(=O)N[C@@H](CC(N)=O)C(=O)N[C@H](C(=O)NCC(=O)N1CCC[C@H]1C(=O)N[C@@H](CCC(=O)O)C(=O)N[C@H](C(=O)N1CCC[C@H]1C(N)=O)[C@@H](C)O)C(C)C)[C@@H](C)O
B9: N^ε1-[(4S)-4-carboxy-4-[[(4S)-4-carboxy-4-(19-carboxynonadecanoylamino)butanoyl]amino]butanoyl]-[Glu14,Arg17,Pro21,Pro27,Pro34,His35]-h-amylin (peptide)
peptide: K([γGlu-γGlu-C20 diacid])CNTATCATQRLAEFLRHSSPNFGAIPSSTNVGPHTY-NH2
modifications: disulfide 2-7 (inferred)

What follows are binders tested against T1, human calcitonin receptor (assay: cell-based or functional assay).

In order of rising “hCTR funct. EC50 (pM)” value:
1. B8  102 pM
2. B6  843 pM
3. B1  1120 pM
4. B4  1450 pM
5. B2  2540 pM
6. B9  2830 pM
7. B3  5580 pM
8. B7  7050 pM
9. B5  8660 pM

Source: patent US20140087995A1 (published 2014)
